From US20110318339A1 (FABRUS, published 2011)

B1: Fab VH1-46_IGHD6-6*01_IGHJ1*01 S102A/S103P/S104F/H111F & L6_IGKJ1*01 (Fab, V domains shown)
VH: QVQLVQSGAEVKKPGASVKVSCKASGYTFTSYYMHWVRQAPGQGLEWMGIINPSGGSTSYAQKFQGRVTMTRDTSTSTVYMELSSLRSEDTAVYYCAREEYAPFSAEYFQFWGQGTLVTVSS
VL: not shown
notes: Fab made in E. coli: VH on CH1 with His6 and Flag tags (Plasmid A), VL on kappa CL (Plasmid C); also called H: APFF & L: wt
B2: Fab VH1-46_IGHD6-6*01_IGHJ1*01 S102A/S103P/S104F/H111F & L6_IGKJ1*01 S28N/S30D/S31H A55G (Fab, V domains shown)
VH: QVQLVQSGAEVKKPGASVKVSCKASGYTFTSYYMHWVRQAPGQGLEWMGIINPSGGSTSYAQKFQGRVTMTRDTSTSTVYMELSSLRSEDTAVYYCAREEYAPFSAEYFQFWGQGTLVTVSS
VL: EIVLTQSPATLSLSPGERATLSCRASQNVDHYLAWYQQKPGQAPRLLIYDASNRGTGIPARFSGSGSGTDFTLTISSLEPEDFAVYYCQQRSNWPPWTFGQGTKVEIKR
notes: Fab made in E. coli: VH on CH1 with His6 and Flag tags (Plasmid A), VL on kappa CL (Plasmid C); also called H: APFF & L: NDH A55G
B3: Fab VH1-46_IGHD6-6*01_IGHJ1*01 S102A/S103P/S104F/H111F & L6_IGKJ1*01 S28N/S30D/S31H A55S (Fab, V domains shown)
VH: QVQLVQSGAEVKKPGASVKVSCKASGYTFTSYYMHWVRQAPGQGLEWMGIINPSGGSTSYAQKFQGRVTMTRDTSTSTVYMELSSLRSEDTAVYYCAREEYAPFSAEYFQFWGQGTLVTVSS
VL: EIVLTQSPATLSLSPGERATLSCRASQNVDHYLAWYQQKPGQAPRLLIYDASNRSTGIPARFSGSGSGTDFTLTISSLEPEDFAVYYCQQRSNWPPWTFGQGTKVEIKR
notes: Fab made in E. coli: VH on CH1 with His6 and Flag tags (Plasmid A), VL on kappa CL (Plasmid C); also called H: APFF & L: NDH A55S
B4: Fab VH1-46_IGHD6-6*01_IGHJ1*01 S102A/S103P/S104F/H111F & L6_IGKJ1*01 S28N/S30D/S31H N53H (Fab, V domains shown)
VH: QVQLVQSGAEVKKPGASVKVSCKASGYTFTSYYMHWVRQAPGQGLEWMGIINPSGGSTSYAQKFQGRVTMTRDTSTSTVYMELSSLRSEDTAVYYCAREEYAPFSAEYFQFWGQGTLVTVSS
VL: EIVLTQSPATLSLSPGERATLSCRASQNVDHYLAWYQQKPGQAPRLLIYDASHRATGIPARFSGSGSGTDFTLTISSLEPEDFAVYYCQQRSNWPPWTFGQGTKVEIKR
notes: Fab made in E. coli: VH on CH1 with His6 and Flag tags (Plasmid A), VL on kappa CL (Plasmid C); also called H: APFF & L: NDH N53H
B5: Fab VH1-46_IGHD6-6*01_IGHJ1*01 S102A/S103P/S104F/H111F & L6_IGKJ1*01 S28N/S30D/S31H S52L (Fab, V domains shown)
VH: QVQLVQSGAEVKKPGASVKVSCKASGYTFTSYYMHWVRQAPGQGLEWMGIINPSGGSTSYAQKFQGRVTMTRDTSTSTVYMELSSLRSEDTAVYYCAREEYAPFSAEYFQFWGQGTLVTVSS
VL: EIVLTQSPATLSLSPGERATLSCRASQNVDHYLAWYQQKPGQAPRLLIYDALNRATGIPARFSGSGSGTDFTLTISSLEPEDFAVYYCQQRSNWPPWTFGQGTKVEIKR
notes: Fab made in E. coli: VH on CH1 with His6 and Flag tags (Plasmid A), VL on kappa CL (Plasmid C); also called H: APFF & L: NDH S52L
B6: Fab VH1-46_IGHD6-6*01_IGHJ1*01 S102A/S103P/S104F/H111F & L6_IGKJ1*01 S28N/S30D/S31H S52T (Fab, V domains shown)
VH: QVQLVQSGAEVKKPGASVKVSCKASGYTFTSYYMHWVRQAPGQGLEWMGIINPSGGSTSYAQKFQGRVTMTRDTSTSTVYMELSSLRSEDTAVYYCAREEYAPFSAEYFQFWGQGTLVTVSS
VL: EIVLTQSPATLSLSPGERATLSCRASQNVDHYLAWYQQKPGQAPRLLIYDATNRATGIPARFSGSGSGTDFTLTISSLEPEDFAVYYCQQRSNWPPWTFGQGTKVEIKR
notes: Fab made in E. coli: VH on CH1 with His6 and Flag tags (Plasmid A), VL on kappa CL (Plasmid C); also called H: APFF & L: NDH S52T

Key:
[1] = molecular target: T1, recombinant human DLL4 (Cat# 1506-D4/CF, R&D Systems) (human, UniProt Q9NR61 27-529); test: ELISA, DLL4 coated, Fab 100 nM
T1 construct: Bought protein; also called hDLL4; rHuman DLL4

[2] = molecular target: T1, recombinant human DLL4 (Cat# …); test: ELISA, DLL4 coated, Fab 75 nM
[3] = molecular target: T1, recombinant human DLL4 (Cat# …); test: ELISA, DLL4 coated, Fab 50 nM
Protocol: (§1) The plate was blocked by adding 1% BSA in Tris-buffered Saline Tween (TBST) and incubating for 1 hour at room temperature followed by washing 2 times with 150 μl TBST. A Fab antibody was serially diluted in 1% BSA in PBS. A 50 μl aliquot of each serial dilution was added, in triplicate, to each well and the plate was incubated for 1 hour at room temperature followed by washing 2 times with TBST. 50 μl of either goat anti-human kappa HRP conjugated secondary antibody (Cat # A7164-1 mL, Sigma-Aldrich) or goat anti-human lambda HRP conjugated secondary antibody (Cat # L1645-1 ml, Sigma-Aldrich), diluted 1:1000 in 1% BSA in PBS, was added to each well and the plate was incubated for 30 minutes at room temperature followed by washing 3 times with 200 μl TBST. Finally, 50 μl TMB one-component reagent (Cat # TMBW-1000-01, BioFax) was added and allowed to develop for 2 minutes at room temperature. The reaction was immediately halted by the addition of 50 μl 0.5M H₂SO₄ and the absorbance at 450 nm was measured using an ELISA plate reader.

[4] = molecular target: T1, recombinant human DLL4 (Cat# …); test: ELISA, DLL4 coated, Fab 12.5 nM
Protocol: as §1

[5] = molecular target: T1, recombinant human DLL4 (Cat# …); test: ELISA, DLL4 coated, Fab 25 nM
Protocol: as §1

[6] = molecular target: T1, recombinant human DLL4 (Cat# …); test: ELISA, DLL4 coated, Fab 100 nM; remark: listed apart in the source
Protocol: as §1

[7] = molecular target: T1, recombinant human DLL4 (Cat# …); test: ELISA, DLL4 coated, Fab 3.125 nM
Protocol: as §1

[8] = molecular target: T1, recombinant human DLL4 (Cat# …); test: ELISA, DLL4 coated, Fab 6.25 nM
Protocol: as §1

[9] = molecular target: T1, recombinant human DLL4 (Cat# …); test: ELISA, DLL4 coated, Fab 50 nM; remark: listed apart in the source
Protocol: as §1

Binder	ELISA absorbance at 450 nm [1] [A450]	ELISA absorbance at 450 nm [2] [A450]	ELISA absorbance at 450 nm [3] [A450]	ELISA absorbance at 450 nm [4] [A450]	ELISA absorbance at 450 nm [5] [A450]	ELISA absorbance at 450 nm [6] [A450]	ELISA absorbance at 450 nm [7] [A450]	ELISA absorbance at 450 nm [8] [A450]	ELISA absorbance at 450 nm [9] [A450]
B1	0.072	0.072	0.06						
B2				0.198	0.316	0.814	0.093	0.125	0.51
B3				0.258	0.407	0.858	0.108	0.154	0.588
B4				0.167	0.238	0.608	0.089	0.109	0.416
B5				0.215	0.335	0.791	0.095	0.142	0.546
B6				0.215	0.323	0.653	0.099	0.13	0.49
